Laboratory results: the nanobody polyreactivity screen of Harvey et al. (2022)

Assay: yeast display, Sf9 membrane polyspecificity reagent, FACS + sequencing; frameworks hold sequencing errors
Procedure, shortened: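 Using colony PCR, genes from sorted yeast display clones were amplified, then sequenced on MiSeq at 2 × 250 and filtered by CDR length. The clones had been stained with 10% biotinylated, detergent-solubilized Sf9 membrane reagent for 1 hour at 4 °C and sorted by FACS into low and high (top ~1%) gates on anti-HA and streptavidin fluorescence. Polyreactivity labels come from the gate of origin.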

Sequence | polyreactivity (PSR sort gate)
QVQLVESGGGLVQAGGSLRLSCAASGFIFRLYAMGLYRQAPGKERELVAAITTSGDSTYYADSVKGRFTISRDNSKNTFYLQMNCLKPEDTAVYYCAARYYYPPKRGYWGQGSQVTVSS | high polyreactivity
QVQLVESGGGLVQAGGSLRLISAASGRTFRVYAIGWYRPAPGKEREFVATISVRGGSTYYADSVKGRFTISRDNAKNTVYLQMNSLKPEDTAFYYCAADSYPYVYALYDYWGQGTQVTVSS | low polyreactivity
QVQLVESGGGLVQAGGSLRLSCAASGSTFGSYAMGWYRQAPGKERELVAAISRGGGSTYYADSVKGRFTISRDNAKNTVYLQMNSLKPEDTAVYYCAATAQNDSRYGSRYYYWGQGTQVTVSS | high polyreactivity
QVQLVESGGGLVQAGGSLRLSCAASGSIFRRYAMGWYRPAPGTERELVAAISYSGGSTYYADSVKGRFTISRDNAKNTVYLQMNSLKPEDTAVYYCAADESRYDYWGQGTQVTVSS | high polyreactivity
QVQLVESAGGLVQAGGSLRLSCAASGYIFGVYAMGWYRQAPGKERELVAAISYGVGSTYYADSVKGRFTISRDNAKNTVYLQMNSLKPEDTAVYYCASDVFFYVYEAYLLYYWGQGTQVTVSS | low polyreactivity
QVQLQDSGVGLVQAGGSLRLSCAASGTISYRYRMGSYRQAPRKELELVAGISFGSITYNADSVKGRFTISRDNAKNTVYLQMNSLKPEDIAVYYCAVYQKSYRFFPYWGQGTQVTVSS | high polyreactivity
QVQLVESGGGLVQAGGSLRLSCAASGSTFVRNAMGWYRQAPGKERELVARISSSGGRTSYADSVKGRFTISRDNAKNTVYLQMNSLKPEDTAVYYCNARHYYIWWRSPTRTAMNYWGQGTQVTVSS | high polyreactivity
QVQLVESGGGLVQAGGSLRLSCAASGFIFADNTMGWYRQAPGKERELVAAISRRGGSTYYADSVKGRFTISRDNAKNTVYLQMNSLKPEDTAVYYCAARPFVKHDYWGQGTQVTVSS | high polyreactivity
QVQLVESGGGLVQAGGSLRLICAASGLTFSGYVMAWYRQAPGKERELVAAISLSGGSTYYADSVKGRFTISRDNAKNTVYLQMNSLKPEDTAVYYCAASTRFYNSYRREYWGQGTQVTVSS | high polyreactivity
QVQLVESGGGIVQAGGSLPLSSAASGSTFPYNTMGWYIQAPGKERELVAAISQRGGSTYADSVKGRFTISRDNAKNTVYLEMNSLKPEDTAVYYCNKRNVYYSYPFDYDYWGQGTQVTVCS | low polyreactivity
QVQLVESGGGVVQAGGSLRLRCAASGSTVLGYVMGWYRQAPGKERELVAAITRSGGRTYYADSVQGRFTISRDNAKNTVSLQMNSLKPEETAVYYCAALRGPSFHGYGYWGQGTQVTVSS | high polyreactivity
QVQLVESGGGLVQAGGSLRLSCAASGRIFYPYAMGWYRQAPGKERELVAAISWNGGRTYYADSVKGRFTISRDNAKNTVYLQMNSLKPEDTAVYYCNAGGYSRVTQRFFHKYDYWGQGTQVTVSS | high polyreactivity
QVQLEESGGGLVHAGGSLRLTCDAYGYIFALNPIVWNRQAPGNESEVVAAINDSGDSTYYADSLKGRFTISRDNSKNTVYLQMNSLNPEDSAVYYCAADTRYRYGAFPYYEYDNWGQGTQVTVSS | low polyreactivity
QVQLVESGGGVDQAGGSLRLSCAACGSTIPYYAMGWYRQAPGKERELVAAISASTGSTNYADSVKGRFTISRDNAKNTVYLQMNSLKPEDTAVYYCAKKRSKIKRFGYWGHGTQVTVSS | high polyreactivity
QVQLVESGGGLVQAGGSLRLSCAASGYTIIQYAMGWYRQAPGKERELVAGMTWSGGSKYADSVKGRFTISRDNAKNTVYLQMNSLNPEDTAVYYCAAVPYSYTYVYLRHYDYWGQGTQVSVSS | low polyreactivity
QVQLVESGGGLVQAGGSLRLSCAASGFTFPGYAMGWYRQAPGNEREFVAAITWSGGRTYYADSVKGRFTISRDNAKNTVYLQMNSLKPEDTAVYYCAAVYRGTWYDYDYWGQGTQVTVSS | high polyreactivity
QVQLVESGGGLVQAGGSLRLSCAASGTTFGYNAMGWYRQAPGKERELVAAITSGGSTNYADSVKGRFTISRDNAKNTVYLQMNSLKPEDTAVYYCDKRGYYHYYWGQGTQVTVSS | high polyreactivity
QVQLVESVGGLVQAGGSLRLSCAASGSIFGYNAMGWYRQAPGKERELVAVINASGASTYYADSVKGRFTISRDNAKNTVYLQMNSLKPEDTAVYYCAKDPFPFPGGDDWGQGTQVTVSS | low polyreactivity
QVQLVESGGGLVQAGGSLRLSCAASGRIFWVNAMGWYRKAPGKERELVARIRGRSGSTYYADSVKGRFTISRDNAKNPVYLQMNSLKREDTAVYYCAAREFRRPDIFLRDYWGQGTQVTVSS | high polyreactivity
QVQLVESGGGLVQAGGSLRLSCAASGITLYRNVMGWYRQAPGKERELVADISGRGTSTYYADSVKGRFTISRDNAKNTVYLQIHSLKPEDNAVYYCKGEVYLVVYPGLYYYDIYDYWGQGTQVTVSS | low polyreactivity
QVQLVESGGGLVQAGGSLRLSCAASGIFVTYAMGWYRQAPGTERELVAAIRYSGDSTYYADSVKGRFTISRDNAKNTVYLQMNSLKPEETAVYYCAATKGWSRYEYWGQGTQVTVSS | low polyreactivity
